# Data as given in article PMC4112278.
# Experiments:
# Experiment in all cases: SEC
# [1] = target: HIV-1_(ITM1_4) gp140 Env trimer (HIV-1 (isolate ITM1_4, clade A))
# [2] = target: HIV-1_(NIBSC40-9) gp140 Env trimer (HIV-1 (isolate NIBSC 40-9, clade A))
# [3] = target: HIV-1_(UG37) gp140 Env trimer (HIV-1 (isolate UG37, clade A))
# [4] = target: HIV-1_(YU2) gp140 Env trimer (HIV-1 (isolate YU2))
# [5] = target: SIV_(mac239) gp140 Env trimer (SIV_(mac239))
substance,measurement,setting,value
HIV-1_(ITM1_4) gp140 Env trimer (domain or fragment),stoichiometry N,[1],3
HIV-1_(NIBSC40-9) gp140 Env trimer (domain or fragment),stoichiometry N,[2],3
HIV-1_(UG37) gp140 Env trimer (domain or fragment),stoichiometry N,[3],3
HIV-1_(YU2) gp140 Env trimer (domain or fragment),stoichiometry N,[4],3
SIV_(mac239) gp140 Env trimer (domain or fragment),stoichiometry N,[5],3
